Laboratory results: patent US20210095265A1 (WISCONSIN ALUMNI RESEARCH FOUNDATION, published 2021)
Residue numbers refer to the chain shown, from its start. In names and notes the source's numbering stands.

What was measured:
[1] = biological target: the molecule itself; experiment: X-ray crystal structures (pdb 5uuo, 5uun); two copies of the protein per asymmetric unit
From the text: Diffraction data were obtained at the GM/CA beam-line at Argonne National Laboratory with an Eiger 16M detector (Casanas et al. 2016). Data were collected on the ammonium acetate and ammonium sulfate crystal forms using 1.033 Å (for 1.45 Å resolution) or 0.7749 Å (for 1.25 Å resolution) X-rays, respectively. Diffraction data were reduced using XDS (Kabsch 2010). Both crystals belonged to space group P2₁2₁2₁ with a predicted solvent content of 60%. The structure was solved by molecular replacement with Phaser (McCoy et al. 2007) in the Phenix suite (Adams et al. 2010), using a search model based on PDB ID 3C8E:A (ecYghU (Stourman et al. 2011)) modified with phenix.sculptor (Bunkóczi et al. 2011), based on primary sequence alignment. […] Phenix.refine (Afonine et al. 2012) and COOT (Emsley et al. 2004) were alternatively used to refine the structure and fit the model to electron density maps.

[2] = biological target: T1, Saro_2873 polypeptide made by cell-free synthesis in its native form
T1 chain: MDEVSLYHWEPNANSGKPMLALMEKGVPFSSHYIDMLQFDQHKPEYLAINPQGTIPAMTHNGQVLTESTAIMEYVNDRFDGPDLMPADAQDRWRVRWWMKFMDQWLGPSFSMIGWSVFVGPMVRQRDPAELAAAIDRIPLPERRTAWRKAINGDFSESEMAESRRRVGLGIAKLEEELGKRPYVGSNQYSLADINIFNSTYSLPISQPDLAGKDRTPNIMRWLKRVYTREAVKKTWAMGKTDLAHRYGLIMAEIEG

[3] = biological target: T2, Saro_2873 N14A (subunit of BaeA variant 3:N14A) (Novosphingobium aromaticivorans); experiment: gel permeation chromatography
T2 construct: This subunit is untagged; the tag is on Saro_2872
T2 chain: T1 chain with N14A

[4] = biological target: T3, Saro_2873 S15A (subunit of BaeA variants 3:S15A and 2:S14A/3:S15A) (Novosphingobium aromaticivorans); experiment: gel permeation chromatography
T3 chain: T1 chain with S15A

[5] = biological target: T4, Saro_2873 polypeptide from Novosphingobium aromaticivorans (subunit of BaeA), co-expressed with Saro_2872 in … (Novosphingobium aromaticivorans); experiment: gel permeation chromatography
T4 construct: Co-expressed with Saro_2872; also called Saro_2873 subunit; second polypeptide of BaeA
T4 chain: T1 chain

B1: recombinant NaGSTNu (Nu-class glutathione-S-transferase of Novosphingobium aromaticivorans DSM 12444, Saro_2595), one subunit (enzyme)
chain: SAIAGMSSEYVPPKVWKWDKANGGAFASVNRPVAGPTSERELPVGKHPFQVYSLGTPNGQKATIMLEELLQLGFSEAEYDAWLIKIFEGDQFTSGFVDINPNSKIPAMVDRSGPEPFRVFESGAILMHLAEKFGVFLPTSGPARAECLSWLFWQVGSAPFIGGGFGHFYNYAPIKIEYAIDRYAMETKRLFDVANRRLAESRYLAGDEYTIADLATYTWFGNIYRGEAYGEAATFLSMHEYEHVGRWVGEIDARPGVLRGRLVNSSKGLAERHDASDFDALPPESLQAIVKGF
notes: also called Saro_2595 product; pdb 5uuo
binding result [1]: binds

B2: Saro_2872 polypeptide from Novosphingobium aromaticivorans (subunit of BaeA), co-expressed with Saro_2873 in E. coli (enzyme)
chain: MSALLYHGEPNGASLTVLAALAETGLDIECRRIDLLAGERHSLPGIVDPVALDLSIEGEGPVLVIDGEAMTESVFLAQYLDEAAGGVGLQPTDAYARWEMMMWCRQITERLSPAAALLGNLATSQSAIAAIPAEDFAILAARIVSDDLRERWQALNDDAVNAAQVADSETKVAAAVDRCEKQLGDGREWLMGTFSIADLVTYSWLAGMEPLRPAAFADAPLVKAWLARTAARPCVQAALARATISEPLRAWAPGPEINRWG
notes: Co-expressed with Saro_2873 from one pVP302K vector; In the H2872 construct Saro_2872 lacks its native start codon; also called Saro_2872 subunit; first polypeptide of BaeA
conversion of racemic MPHPV into GS-HPV and guaiacol (HPLC) [2]: half of the MPHPV was converted into GS-HPV and guaiacol
binding result [3]: binds
binding result [4]: binds

B3: Saro_2872 S14A (subunit of BaeA variants 2:S14A and 2:S14A/3:S15A) (enzyme)
chain: B2 chain with S14A
notes: The N-terminal His8-tag and Tev site are on this subunit, and its native start codon is missing; also called H2872(S14A)
binding result [5]: binds
binding result [4]: binds
